Reference: patent US20190382486A1 (Pfizer, published 2019)
Residue numbers refer to the chain shown, from its start.

Columns and labels:
[1] = biological target: T1, CD3ed (CD3 epsilon/delta fusion protein) (human); test: SPR, recombinant human CD3
T1 construct: Expressed in HEK293 and purified on His60 resin and by SEC; also called soluble human CD3ed antigen; hCD3ed
T1 chain: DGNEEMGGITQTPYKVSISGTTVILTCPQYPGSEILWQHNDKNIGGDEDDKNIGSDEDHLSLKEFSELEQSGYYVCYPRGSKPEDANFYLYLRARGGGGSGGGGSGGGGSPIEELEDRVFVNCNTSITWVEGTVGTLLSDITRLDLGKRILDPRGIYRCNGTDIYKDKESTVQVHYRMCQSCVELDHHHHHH

[2] = biological target: T2, human CD3 epsilon subunit (CD3e), as cell surface CD3 on Jurkat cells and on naive human T cells (human, UniProt P07766 23-207); test: flow cytometry, cell surface binding to human CD3 on naive human T cells
T2 construct: On the cells CD3 epsilon is part of the whole CD3/TCR complex
Description: Purified CD3 bispecific antibodies were titrated for cell surface binding to human CD3 on naïve human T cells purified from fresh human peripheral blood mononuclear cells (PBMCs), using the standard flow cytometry methods known in the art using BD LSRII Fortessa analyzer.

[3] = biological target: T2, human CD3 epsilon subunit (CD3e), as …; test: cell-based or functional assay
[4] = biological target: T2, human CD3 epsilon subunit (CD3e), as …; test: flow cytometry titration on naive human T cells (PE-A Geo Mean against Ab in nM); Kd printed beside the legend
[5] = biological target: T2, human CD3 epsilon subunit (CD3e), as …; test: FACS on Jurkat cells expressing CD3

B1: GUCY2C-1608 (GUCY2c-2B5v6) bispecific antibody (bispecific antibody)
chain 1: DIQLTQSPSSLSASVGDRVTITCRASESVDYYGSSLLQWYQQKPGKAPKLLIYAASKLASGVPSRFSGSGSGTDFTLTISSLQPEDFATYYCQQTRKAYTFGQGTKLEIKGGGSGGGGEVQLVESGGGLVQPGGSLRLSCAASGFTFSDYYMTWVRQAPGKGLEWVAFIRNQARGYTSDHNPSVKGRFTISRDNAKNSLYLQMNSLRAEDTAVYYCARDRPSYYVLDYWGQGTTVTVSSGCPPCPAPEAAGAPSVFLFPPKPKDTLMISRTPEVTCVVVDVSHEDPEVKFNWYVDGVEVHNAKTKPREEQYNSTYRVVSVLTVLHQDWLNGKEYKCKVSNKALPAPIEKTISKAKGQPREPQVCTLPPSREEMTKNQVSLWCLVKGFYPSDIAVEWESNGQPENNYKTTPPVLDSDGSFFLYSKLTVDKSRWQQGNVFSCSVMHEALHNHYTQKSLSLSPG
chain 2: DIQMTQSPSSLSASVGDRVTITCTSSQSLFNVRSQKNYLAWYQQKPGKAPKLLIYWASTRESGVPSRFSGSGSGTDFTLTISSLQPEDFATYYCKQSYDLFTFGGGTKVEIKGGGGSGGGGEVQLVESGGGLVQPGGSLRLSCAASGFTFSSYWMHWVRQAPGKGLEWIGEIKPSNELTNVHEKFKDRFTISVDKAKNSAYLQMNSLRAEDTAVYYCTRTITTTEGYWFFDVWGQGTLVTVSSGCPPCPAPEAAGAPSVFLFPPKPKDTLMISRTPEVTCVVVDVSHEDPEVKFNWYVDGVEVHNAKTKPREEQYNSTYRVVSVLTVLHQDWLNGKEYKCKVSNKALPAPIEKTISKAKGQPREPQVYTLPPCREEMTKNQVSLSCAVKGFYPSDIAVEWESNGQPENNYKTTPPVLDSDGSFFLVSKLTVDKSRWQQGNVFSCSVMHEALHNHYTQKSLSLSPG
notes: Bispecific diabody-Fc
B1 was tested, and the Kd [1] was 128 nM, the EC50 [2] was 35.4 nM and the “In vitro Cytotoxicity” value [3] was 0.772 nM.

B2: GUCY2c-2B5 bispecific antibody (bispecific antibody, human IgG1)
chain 1: B1 chain 1 with S34T, L37M, A47P, K57N, L58V, A59E, A98V, Q172R
chain 2: DIQMTQSPSSLSASVGDRVTITCTSSQSLFNVRSRKNYLAWYQQKPGKAPKLLIYWASTRESGVPSRFSGSGSGTDFTLTISSLQPEDFATYYCKQSYDLFTFGGGTKVEIKGGGSGGGGEVQLVESGGGLVQPGGSLRLSCAASGYTFTSYWMHWVRQAPGKGLEWIGEIKPSNGLTNYIEKFKNRFTISVDKAKNSAYLQMNSLRAEDTAVYYCTRTITTTEGYWFFDVWGQGTLVTVSSGCPPCPAPEAAGAPSVFLFPPKPKDTLMISRTPEVTCVVVDVSHEDPEVKFNWYVDGVEVHNAKTKPREEQYNSTYRVVSVLTVLHQDWLNGKEYKCKVSNKALPAPIEKTISKAKGQPREPQVYTLPPCREEMTKNQVSLSCAVKGFYPSDIAVEWESNGQPENNYKTTPPVLDSDGSFFLVSKLTVDKSRWQQGNVFSCSVMHEALHNHYTQKSLSLSPG
notes: Bispecific diabody-Fc (knob-in-hole, effector null human IgG1 Fc); also called GUCY2c-0250
For B2, the Kd [4] was 13.2 nM.

B3: 2B5-0006 (2B5v6) (antibody, V domains shown)
VH: EVQLVESGGGLVQPGGSLRLSCAASGFTFSDYYMTWVRQAPGKGLEWVAFIRNQARGYTSDHNPSVKGRFTISRDNAKNSLYLQMNSLRAEDTAVYYCARDRPSYYVLDYWGQGTTVTVSS
VL: DIQMTQSPSSLSASVGDRVTITCTSSQSLFNVRSQKNYLAWYQQKPGKAPKLLIYWASTRESGVPSRFSGSGSGTDFTLTISSLQPEDFATYYCKQSYDLFTFGGGTKVEIK
notes: also called h2B5v6; parental 2B5v6
For B3, the EC50 [5] was 9.8 nM.
